According to patent publication US20160304613A1 (Genentech, published 2016):

What was measured:
human NRP1 [1] = biological target: T1, human NRP1 (human, UniProt O14786 22-641); test: SPR (BIAcore-3000), IgG immobilized, NRP1 injected, 25 C
T1 construct: range 1-641; Recombinant soluble protein; also called hNRP1; human neuropilin-1
Procedure: (§1) Association rates (kₒₙ) and dissociation rates (koff) were calculated using a simple one-to-one Langmuir binding model (BIAcore Evaluation Software version 3.2). The equilibrium dissociation constant (Kd) was calculated as the ratio koff/kₒₙ.
(§2) (See Materials and Methods).

murine NRP1 [2] = biological target: T2, murine NRP1 (murine, UniProt P97333 22-641); test: as above
T2 construct: range 1-641; Recombinant soluble protein; also called mNRP1; murine neuropilin-1
Procedure: as §1, §2

human NRP1 [3] = biological target: T1, human NRP1; test: competitive phage ELISA
murine NRP1 [4] = biological target: T2, murine NRP1; test: competitive phage ELISA
human NRP1 [5] = biological target: T1, human NRP1; test: competitive phage ELISA, phage-displayed Fab'2, antigen in solution vs immobilized antigen
murine NRP1 [6] = biological target: T2, murine NRP1; test: as above
ErbB2-ECD = biological target: T3, ErbB2-ECD (UniProt P04626 23-652, limits assumed); test: ELISA, antigen-coated wells (2 µg/ml), IgG at 10 µg/ml, detected with anti-human IgG HRP, OD450nm
T3 construct: extracellular domain; Specificity control antigen

murine NRP2 [7] = biological target: T4, murine NRP2 (murine, UniProt O35375 23-864, limits assumed); test: as above
T4 construct: Coated on wells in ELISA and injected in SPR; construct not described; In the Sema3F collapse assay it is the endogenous NRP2 of mouse E17 hippocampal neurons; also called mNRP2

human NRP2 [8] = biological target: T5, human NRP2 (human, UniProt O60462 23-864, limits assumed); test: as above
T5 construct: Coated on wells in ELISA and injected in SPR; construct not described; also called hNRP2

BSA = biological target: T6, BSA (UniProt P02769 25-607); test: as above
T6 construct: Specificity control antigen

murine NRP2 [9] = biological target: T4, murine NRP2; test: BIAcore SPR, IgG immobilized on the chip, antigen injected at 500 nM (printed '500nm')
Procedure: as §1

human NRP2 [10] = biological target: T5, human NRP2; test: as above
Procedure: as §1

T2 sequence (P97333 22-641 limits assumed, form in doubt): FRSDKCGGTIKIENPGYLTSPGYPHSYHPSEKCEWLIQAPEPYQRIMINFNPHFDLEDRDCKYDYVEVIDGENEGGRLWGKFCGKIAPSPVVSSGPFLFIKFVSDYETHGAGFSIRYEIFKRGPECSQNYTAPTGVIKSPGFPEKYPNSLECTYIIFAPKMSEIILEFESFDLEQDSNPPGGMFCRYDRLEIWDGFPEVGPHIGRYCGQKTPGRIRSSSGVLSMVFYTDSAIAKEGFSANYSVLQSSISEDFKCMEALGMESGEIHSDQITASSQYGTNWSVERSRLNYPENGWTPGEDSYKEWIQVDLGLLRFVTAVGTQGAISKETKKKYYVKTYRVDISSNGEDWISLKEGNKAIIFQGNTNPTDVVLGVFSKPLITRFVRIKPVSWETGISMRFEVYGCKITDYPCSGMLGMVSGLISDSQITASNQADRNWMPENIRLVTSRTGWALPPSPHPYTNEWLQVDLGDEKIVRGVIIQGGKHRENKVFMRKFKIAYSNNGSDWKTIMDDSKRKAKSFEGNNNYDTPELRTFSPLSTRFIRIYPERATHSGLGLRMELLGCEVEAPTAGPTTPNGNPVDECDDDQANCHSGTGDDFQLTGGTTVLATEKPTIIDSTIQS
T4 sequence (O35375 23-864 limits assumed): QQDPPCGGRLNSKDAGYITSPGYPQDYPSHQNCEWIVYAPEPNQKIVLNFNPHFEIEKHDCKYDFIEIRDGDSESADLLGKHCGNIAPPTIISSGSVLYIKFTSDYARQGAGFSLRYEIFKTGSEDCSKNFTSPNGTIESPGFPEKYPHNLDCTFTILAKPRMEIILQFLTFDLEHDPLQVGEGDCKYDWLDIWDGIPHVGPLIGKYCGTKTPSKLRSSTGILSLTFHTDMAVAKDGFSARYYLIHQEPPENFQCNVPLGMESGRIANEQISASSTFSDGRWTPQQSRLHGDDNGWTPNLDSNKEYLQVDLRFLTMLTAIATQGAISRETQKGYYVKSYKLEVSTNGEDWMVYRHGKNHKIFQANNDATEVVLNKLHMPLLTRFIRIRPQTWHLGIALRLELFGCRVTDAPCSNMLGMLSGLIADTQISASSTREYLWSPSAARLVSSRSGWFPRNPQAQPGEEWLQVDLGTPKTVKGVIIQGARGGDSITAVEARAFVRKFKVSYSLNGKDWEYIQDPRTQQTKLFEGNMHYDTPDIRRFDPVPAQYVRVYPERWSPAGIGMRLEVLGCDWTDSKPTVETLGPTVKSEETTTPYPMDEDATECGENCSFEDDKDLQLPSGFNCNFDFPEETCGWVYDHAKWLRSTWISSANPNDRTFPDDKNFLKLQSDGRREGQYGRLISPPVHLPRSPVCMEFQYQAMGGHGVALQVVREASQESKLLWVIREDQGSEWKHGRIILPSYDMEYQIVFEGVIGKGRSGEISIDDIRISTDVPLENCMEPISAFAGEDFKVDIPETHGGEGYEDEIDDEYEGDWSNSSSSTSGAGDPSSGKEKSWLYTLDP
T5 sequence (O60462 23-864 limits assumed): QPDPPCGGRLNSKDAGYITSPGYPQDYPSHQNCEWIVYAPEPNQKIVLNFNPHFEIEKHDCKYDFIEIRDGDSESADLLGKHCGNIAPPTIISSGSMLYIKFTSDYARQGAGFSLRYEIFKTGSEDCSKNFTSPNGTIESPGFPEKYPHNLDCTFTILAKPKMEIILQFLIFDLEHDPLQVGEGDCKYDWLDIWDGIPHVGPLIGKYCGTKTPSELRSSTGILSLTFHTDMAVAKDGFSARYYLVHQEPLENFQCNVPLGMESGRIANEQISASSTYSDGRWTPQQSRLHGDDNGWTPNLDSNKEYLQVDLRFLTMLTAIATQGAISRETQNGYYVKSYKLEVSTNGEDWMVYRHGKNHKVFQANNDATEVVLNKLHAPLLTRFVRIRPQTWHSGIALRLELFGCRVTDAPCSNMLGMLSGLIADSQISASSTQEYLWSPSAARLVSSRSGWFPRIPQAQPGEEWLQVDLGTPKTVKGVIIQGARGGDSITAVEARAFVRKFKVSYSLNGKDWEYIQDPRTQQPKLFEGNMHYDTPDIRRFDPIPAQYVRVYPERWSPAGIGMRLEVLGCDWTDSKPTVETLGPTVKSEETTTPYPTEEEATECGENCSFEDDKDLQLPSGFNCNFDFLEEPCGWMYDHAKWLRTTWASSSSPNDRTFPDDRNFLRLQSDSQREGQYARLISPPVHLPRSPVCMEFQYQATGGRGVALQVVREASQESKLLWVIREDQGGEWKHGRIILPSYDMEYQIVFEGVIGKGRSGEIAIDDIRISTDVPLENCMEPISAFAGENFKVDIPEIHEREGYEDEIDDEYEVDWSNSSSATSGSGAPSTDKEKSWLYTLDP
T6 sequence (P02769 25-607 limits assumed): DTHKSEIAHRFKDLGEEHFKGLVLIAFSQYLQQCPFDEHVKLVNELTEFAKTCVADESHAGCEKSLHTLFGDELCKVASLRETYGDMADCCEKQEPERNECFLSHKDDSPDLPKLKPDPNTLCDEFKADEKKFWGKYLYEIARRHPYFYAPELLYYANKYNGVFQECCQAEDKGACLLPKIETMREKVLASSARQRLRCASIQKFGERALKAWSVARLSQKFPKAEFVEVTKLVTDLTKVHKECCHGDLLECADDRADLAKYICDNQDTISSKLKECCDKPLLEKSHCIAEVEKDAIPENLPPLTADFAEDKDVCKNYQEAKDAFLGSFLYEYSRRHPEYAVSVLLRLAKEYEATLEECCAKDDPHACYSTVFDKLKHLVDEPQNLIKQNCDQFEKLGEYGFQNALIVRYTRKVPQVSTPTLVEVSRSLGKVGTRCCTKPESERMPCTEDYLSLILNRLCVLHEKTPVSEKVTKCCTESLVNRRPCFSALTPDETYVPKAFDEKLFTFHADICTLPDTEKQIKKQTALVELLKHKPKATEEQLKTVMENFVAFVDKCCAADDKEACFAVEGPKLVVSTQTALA

Molecule | koff (human NRP1 [1]) | kon (human NRP1 [1]) | koff (murine NRP1 [2]) | kon (murine NRP1 [2]) | IC50 (human NRP1 [3]) | IC50 (murine NRP1 [4]) | IC50 (human NRP1 [5]) | IC50 (murine NRP1 [6]) | binding result (ErbB2-ECD) | binding result (murine NRP2 [7]) | binding result (human NRP2 [8]) | binding result (BSA) | Kd (human NRP1 [1]) | Kd (murine NRP1 [2]) | binding result (murine NRP2 [9]) | binding result (human NRP2 [10])
YW107.4 (antibody) | 0.0011 s⁻¹ | 220000 M⁻¹ s⁻¹ | 0.0015 s⁻¹ | 140000 M⁻¹ s⁻¹ |  |  |  |  |  |  |  |  |  |  |  | 
YW64.3 (antibody, human IgG1, V domains shown, full length human IgG1 (CHO) in ELISA, SPR and FACS; also called anti-NRP1^A; anti-NRP^A) VH: EVQLVESGGGLVQPGGSLRLSCAASGFSFSSEPISWVRQAPGKGLEWVSSITGKNGYTYYADSVKGRFTISADTSKNTAYLQMNSLRAEDTAVYYCARWGKKVYGMDVWGQGTLVTVSS VL: DIQMTQSPSSLSASVGDRVTITCRASQSISSYLAWYQQKPGKAPKLLIYGASSRASGVPSRFSGSGSGTDFTLTISSLQPEDFATYYCQQYMSVPITFGQGTKVEIKR | 0.00012 s⁻¹ | 130000 M⁻¹ s⁻¹ | 0.00045 s⁻¹ | 60000 M⁻¹ s⁻¹ | < 70 nM | < 70 nM | 0.48 nM | 3.4 nM | no binding (tested: 10 µg/ml) | no binding (tested: 10 µg/ml) | no binding (tested: 10 µg/ml) | no binding (tested: 10 µg/ml) | 0.9 nM | 7.8 nM |  | 
YW107.4.87 (antibody, V domains shown, Monovalent Fab on phage in the phage ELISA; also called anti-NRP1^B; anti-NRP^B) VH: EVQLVESGGGLVQPGGSLRLSCAASGFTFSSYAMSWVRQAPGKGLEWVSQISPAGGYTNYADSVKGRFTISADTSKNTAYLQMNSLRAEDTAVYYCARELPYYRMSKVMDVWGQGTLVTVSS VL: DIQMTQSPSSLSASVGDRVTITCRASQYFSSYLAWYQQKPGKAPKLLIYGASSRASGVPSRFSGSGSGTDFTLTISSLQPEDFATYYCQQYLGSPPTFGQGTKVEIKR |  |  |  |  |  |  |  |  |  |  |  |  |  |  | no binding (tested: 500 nM) | no binding (tested: 500 nM)
